± gives the standard deviation of the averaged measurements.
System: ATP
Assay: switch fluorescence ratio, 500 uM ATP over buffer (Cy3 cluster intensity, sum of 5 cycles each) (fold (ratio)); higher = stronger signal-on switching upon ATP binding; sequences stand for … in TCGTCGGCAGCGTCAGATGTGTATAAGAGACAGTTTTTTTTTTTTTTTTTTTTTTTTT…TC
Settings: aptamer strand: ATP DNA aptamer (quencher-CACCTGGGGGAGTATTGCGGAGGAAGG + anchor), 100 nM annealed; ATP concentration: 500 uM
Procedure, shortened: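 After annealing to 100 nM quencher-labelled ATP aptamer, Cy3-labelled switching-strand clusters on a modified Illumina MiSeq flow-cell were imaged in selection buffer. A second image followed after 15 min with 500 uM ATP at 22 °C, and five such buffer/ATP cycles were done, each separated by NaOH stripping and re-annealing. The fluorescence ratio, averaged per switch-domain sequence, is summed target-cycle over summed buffer-cycle Cy3 intensity per cluster, with clusters outside 100-1000 RFU excluded.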
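Also: ATP exposure 15 min at 22 °C before imaging.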

TTTTATCTTG
switch fluorescence ratio: 1.03 ± 0.017

TTTTATGACA
switch fluorescence ratio: 1.02 ± 0.033

TTTTATGACC
switch fluorescence ratio: 1.008 ± 0.0066

TTTTATGCAA
switch fluorescence ratio: 1.28 ± 0.3

TTTTATGCCC
switch fluorescence ratio: 0.9772 ± 0.0032

TTTTATGCTT
switch fluorescence ratio: 0.97025 ± 0.00037

TTTTATGGAC
switch fluorescence ratio: 1.03 ± 0.03

TTTTATGGAT
switch fluorescence ratio: 1.01 ± 0.013

TTTTATGGCG
switch fluorescence ratio: 1.04 ± 0.0024

TTTTATGGGT
switch fluorescence ratio: 0.992 ± 0.018

TTTTATGTGT
switch fluorescence ratio: 0.992 ± 0.035

TTTTATGTTC
switch fluorescence ratio: 1.01 ± 0.018

TTTTATTAAA
switch fluorescence ratio: 1 ± 0.031

TTTTATTATG
switch fluorescence ratio: 1 ± 0.022

TTTTATTCAG
switch fluorescence ratio: 1 ± 0.03

TTTTATTTGC
switch fluorescence ratio: 1.01 ± 0.024

TTTTATTTTC
switch fluorescence ratio: 0.993 ± 0.027

TTTTCAAACC
switch fluorescence ratio: 0.9953 ± 0.0034

TTTTCAAATC
switch fluorescence ratio: 1.016 ± 0.0075

TTTTCAACCA
switch fluorescence ratio: 1.06 ± 0.043

TTTTCAAGAG
switch fluorescence ratio: 1.019 ± 0.01

TTTTCAAGGA
switch fluorescence ratio: 0.993 ± 0.07

TTTTCAAGTG
switch fluorescence ratio: 1 ± 0.029

TTTTCAATCG
switch fluorescence ratio: 1.01 ± 0.045

TTTTCAATTT
switch fluorescence ratio: 0.9758 ± 0.0064

TTTTCACAAT
switch fluorescence ratio: 1.17 ± 0.21

TTTTCACGTT
switch fluorescence ratio: 1.07 ± 0.095

TTTTCACTTC
switch fluorescence ratio: 1.03 ± 0.069

TTTTCAGTGG
switch fluorescence ratio: 1.02 ± 0.021

TTTTCAGTGT
switch fluorescence ratio: 0.996 ± 0.029

TTTTCATATC
switch fluorescence ratio: 1.04 ± 0.025

TTTTCATCAT
switch fluorescence ratio: 1.01 ± 0.031

TTTTCATTCT
switch fluorescence ratio: 1.01 ± 0.013

TTTTCCAGGG
switch fluorescence ratio: 1.22 ± 0.18

TTTTCCATTA
switch fluorescence ratio: 1 ± 0.044

TTTTCCCTGC
switch fluorescence ratio: 1.24 ± 0.11

TTTTCCGTTT
switch fluorescence ratio: 1.02 ± 0.032

TTTTCCT
switch fluorescence ratio: 1.04 ± 0.02

TTTTCGAAGC
switch fluorescence ratio: 2.08 ± 1.5

TTTTCGAAGG
switch fluorescence ratio: 1.005 ± 0.0028

TTTTCGAGAG
switch fluorescence ratio: 1 ± 0.026

TTTTCGATAG
switch fluorescence ratio: 1 ± 0.013

TTTTCGGATT
switch fluorescence ratio: 0.9845 ± 0.0054

TTTTCGGCGT
switch fluorescence ratio: 1.01 ± 0.01

TTTTCGGCTG
switch fluorescence ratio: 0.943 ± 0.11

TTTTCGGTCA
switch fluorescence ratio: 0.976 ± 0.026

TTTTCGGTCT
switch fluorescence ratio: 0.994 ± 0.017

TTTTCGGTGA
switch fluorescence ratio: 0.9713 ± 0.0057

TTTTCGGTGC
switch fluorescence ratio: 1.06 ± 0.1

TTTTCGTATG
switch fluorescence ratio: 1 ± 0.053

TTTTCGTTTC
switch fluorescence ratio: 1.01 ± 0.033

TTTTCTACGG
switch fluorescence ratio: 0.989 ± 0.02

TTTTCTACTT
switch fluorescence ratio: 0.999 ± 0.027

TTTTCTATAT
switch fluorescence ratio: 1.01 ± 0.065

TTTTCTGTGT
switch fluorescence ratio: 0.9398 ± 0.0077

TTTTCTTAGG
switch fluorescence ratio: 1.08 ± 0.14

TTTTCTTCTT
switch fluorescence ratio: 1.02 ± 0.068

TTTTCTTTAT
switch fluorescence ratio: 1.03 ± 0.036

TTTTGAAAAA
switch fluorescence ratio: 1 ± 0.061

TTTTGAAAGA
switch fluorescence ratio: 1.01 ± 0.062

TTTTGAAAGT
switch fluorescence ratio: 1.07 ± 0.14

TTTTGAATAA
switch fluorescence ratio: 0.9685 ± 0.0049

TTTTGACCGC
switch fluorescence ratio: 1.09 ± 0.061

TTTTGACTGT
switch fluorescence ratio: 0.966 ± 0.015

TTTTGAGATC
switch fluorescence ratio: 1.04 ± 0.045

TTTTGAGGAG
switch fluorescence ratio: 0.9807 ± 0.0038

TTTTGAGGTT
switch fluorescence ratio: 0.983 ± 0.034

TTTTGAGTGA
switch fluorescence ratio: 0.954 ± 0.041

TTTTGAGTGT
switch fluorescence ratio: 0.995 ± 0.051

TTTTGATAGA
switch fluorescence ratio: 1 ± 0.058

TTTTGATATA
switch fluorescence ratio: 0.9989 ± 0.0085

TTTTGATCAA
switch fluorescence ratio: 1.01 ± 0.02

TTTTGATCGA
switch fluorescence ratio: 1.03 ± 0.11

TTTTGATCGG
switch fluorescence ratio: 0.982 ± 0.037

TTTTGATGAT
switch fluorescence ratio: 1.02 ± 0.013

TTTTGATGTA
switch fluorescence ratio: 0.977 ± 0.019

TTTTGATTTA
switch fluorescence ratio: 1 ± 0.053

TTTTGATTTT
switch fluorescence ratio: 1.02 ± 0.041

TTTTGCATTA
switch fluorescence ratio: 1.33 ± 0.5

TTTTGCCCGG
switch fluorescence ratio: 1.01 ± 0.033

TTTTGCGCGA
switch fluorescence ratio: 1.09 ± 0.095

TTTTGCGGTT
switch fluorescence ratio: 0.998 ± 0.038

TTTTGCTCAA
switch fluorescence ratio: 0.996 ± 0.011

TTTTGCTTCT
switch fluorescence ratio: 1.03 ± 0.02

TTTTGGAAAA
switch fluorescence ratio: 1.02 ± 0.017

TTTTGGAAGA
switch fluorescence ratio: 0.983 ± 0.039

TTTTGGAAGG
switch fluorescence ratio: 1.02 ± 0.0083

TTTTGGAATA
switch fluorescence ratio: 1.02 ± 0.059

TTTTGGAGGG
switch fluorescence ratio: 1.01 ± 0.034

TTTTGGCCAG
switch fluorescence ratio: 0.991 ± 0.061

TTTTGGCCTG
switch fluorescence ratio: 1.02 ± 0.038

TTTTGGCTAA
switch fluorescence ratio: 1.01 ± 0.022

TTTTGGCTGG
switch fluorescence ratio: 1.01 ± 0.052

TTTTGGCTGT
switch fluorescence ratio: 1.09 ± 0.25

TTTTGGGA
switch fluorescence ratio: 1.01 ± 0.064

TTTTGGGAAT
switch fluorescence ratio: 1.04 ± 0.052

TTTTGGGCCT
switch fluorescence ratio: 1.042 ± 0.0088

TTTTGGGTTC
switch fluorescence ratio: 1.03 ± 0.07

TTTTGGGTTT
switch fluorescence ratio: 1.02 ± 0.086

TTTTGGTCTG
switch fluorescence ratio: 1.01 ± 0.031

TTTTGGTTAC
switch fluorescence ratio: 1.04 ± 0.055

TTTTGGTTGA
switch fluorescence ratio: 0.977 ± 0.025

TTTTGGTTTT
switch fluorescence ratio: 1 ± 0.039

TTTTGTAATG
switch fluorescence ratio: 0.991 ± 0.035

TTTTGTAGCA
switch fluorescence ratio: 1.1 ± 0.03

TTTTGTATGG
switch fluorescence ratio: 0.9893 ± 0.0079

TTTTGTATTG
switch fluorescence ratio: 0.98 ± 0.024

TTTTGTCAGG
switch fluorescence ratio: 0.993 ± 0.0079

TTTTGTGATT
switch fluorescence ratio: 0.984 ± 0.013

TTTTGTGGGG
switch fluorescence ratio: 0.999 ± 0.037

TTTTGTGTTG
switch fluorescence ratio: 0.996 ± 0.013

TTTTGTTAAA
switch fluorescence ratio: 1.01 ± 0.028

TTTTGTTACA
switch fluorescence ratio: 1.011 ± 0.0029

TTTTGTTAGG
switch fluorescence ratio: 0.98 ± 0.01

TTTTGTTGCA
switch fluorescence ratio: 1.038 ± 0.0056

TTTTGTTTAC
switch fluorescence ratio: 1.01 ± 0.028

TTTTGTTTGC
switch fluorescence ratio: 1.02 ± 0.03

TTTTTAAAAG
switch fluorescence ratio: 0.988 ± 0.011

TTTTTAAACT
switch fluorescence ratio: 0.9921 ± 0.0076

TTTTTAAATT
switch fluorescence ratio: 0.997 ± 0.025

TTTTTAACAC
switch fluorescence ratio: 1.02 ± 0.021

TTTTTAACGC
switch fluorescence ratio: 1.3 ± 0.29

TTTTTAAGAT
switch fluorescence ratio: 0.995 ± 0.035

TTTTTAAGGG
switch fluorescence ratio: 0.996 ± 0.032

TTTTTACATT
switch fluorescence ratio: 0.99 ± 0.032

TTTTTACTAG
switch fluorescence ratio: 1.007 ± 0.0023

TTTTTACTTT
switch fluorescence ratio: 1.05 ± 0.17

TTTTTAGGGT
switch fluorescence ratio: 1 ± 0.073

TTTTTAGGTA
switch fluorescence ratio: 0.992 ± 0.017

TTTTTAGTCG
switch fluorescence ratio: 1 ± 0.036

TTTTTAGTGT
switch fluorescence ratio: 1.01 ± 0.035

TTTTTAGTTT
switch fluorescence ratio: 0.987 ± 0.028

TTTTTATACT
switch fluorescence ratio: 1.02 ± 0.027

TTTTTATAGG
switch fluorescence ratio: 1.008 ± 0.0041

TTTTTATTA
switch fluorescence ratio: 1.001 ± 0.0052

TTTTTATTTG
switch fluorescence ratio: 0.995 ± 0.05

TTTTTCAAAA
switch fluorescence ratio: 1.029 ± 0.0063

TTTTTCACGA
switch fluorescence ratio: 1.03 ± 0.019

TTTTTCACGG
switch fluorescence ratio: 0.999 ± 0.034

TTTTTCACGT
switch fluorescence ratio: 1.02 ± 0.029

TTTTTCACTG
switch fluorescence ratio: 1 ± 0.052

TTTTTCAGCA
switch fluorescence ratio: 1.04 ± 0.029

TTTTTCAGCT
switch fluorescence ratio: 1.02 ± 0.012

TTTTTCATAT
switch fluorescence ratio: 1.08 ± 0.2

TTTTTCATCA
switch fluorescence ratio: 0.982 ± 0.036

TTTTTCATGG
switch fluorescence ratio: 1 ± 0.031

TTTTTCCAAG
switch fluorescence ratio: 1.02 ± 0.011

TTTTTCCCCG
switch fluorescence ratio: 1.33 ± 0.6

TTTTTCCGCG
switch fluorescence ratio: 1.128 ± 0.0084

TTTTTCCTGA
switch fluorescence ratio: 1.02 ± 0.011

TTTTTCGCCT
switch fluorescence ratio: 1.01 ± 0.029

TTTTTCGCGG
switch fluorescence ratio: 1.01 ± 0.015

TTTTTCGCTG
switch fluorescence ratio: 1.03 ± 0.022

TTTTTCGGCG
switch fluorescence ratio: 1.01 ± 0.029

TTTTTCGGG
switch fluorescence ratio: 0.996 ± 0.014

TTTTTCGGGA
switch fluorescence ratio: 1 ± 0.023

TTTTTCGGTG
switch fluorescence ratio: 1.04 ± 0.11

Reference: the supplement of paper PMC10126150
